Experimental data: patent US20210277145A1 (INSERM INSTITUT NATIONAL DE LA SANTE ET DE LA RECHERCHE …, published 2021)

Tests used:
[1] = molecular target: T1, murine albumin (murine, UniProt P07724 25-608); experiment: ELISA, albumin coated at 10 microgram/ml, anti-His tag detection
From the text: (§1) Example 1: Binding of KB-AT-002/003_ABP to human and murine albumin in an immunosorbent assay. Binding to albumin may be favorable to increase the size of sdAbs, which are smaller sized than conventional immunoglobulins (15 kDa versus 150 kDa, for a monovalent sdAb and IgG, respectively). A construct was established encoding a bi-paratopic sdAb (KB-AT-002/003) fused to an albumin binding peptide (ABP, with the amino acid sequence […]) resulting in the sdAb designated KB-AT-002/003_ABP (SEQ ID NO: 18). Purified KB-AT-002/003_ABP was tested for binding to both human and murine albumin. Human and murine albumin were immobilized (10 microgram/ml) in 10 mM NaHCO₃, 50 mM Na2CO3 (pH 9.5) in a volume of 50 microliter in microtiter plates (Greiner Bio-One, Les Ulis, France) for 16 h at 4° C. As a negative control, no albumin was immobilized. […]
(§2) Wells were then washed three times with 200 microliter/well using TBS-T. Bound of KB-AT-002/003_ABP was probed with peroxidase-labeled monoclonal anti-His tag antibodies (Abcam, diluted 1/10000) for 2 hours at 37° C. with 50 microliter/well. Wells were then washed three times with 100 microliter/well using TBS-T. Residual peroxidase activity was detected by measuring peroxidase-mediated […] of 3,3′,5,5′-tetramethylbenzidine. […]

[2] = molecular target: T2, human albumin (human, UniProt P02768 25-609); experiment: as above
T2 construct: Coated on microtiter wells at 10 microgram/ml
From the text: as §1, §2

[3] = molecular target: T3, biotinylated murine albumin (murine, UniProt P07724 25-608, biotinylated (sites not given)); experiment: biolayer interferometry (Octet-QK), bt-albumin on streptavidin sensors, sdAb at 125 or 250 microgram/ml
T3 construct: Captured on streptavidin biosensors; also called murine bt-albumin; bt-albumin
Protocol: (§3) Example 2: Binding of KB-AT-002/003_ABP to biotinylated human albumin in a biolayer-interferometry analysis assay. We tested the binding of KB-AT-002/003_ABP to biotinylated human albumin using Octet-QK equipment (FIG. 2). To this end, biotinylated albumin (bt-albumin) was diluted in phosphate-buffered saline with 0.1% Tween-20 (PBS-T) to a concentration of 200 microgram/ml for absorption to streptavidin-high binding capacity sensors (Fortébio, Menlo Park, Calif., USA). Sensors were rehydrated in 0.2 ml PBS-T for 15 min. Sensors were then incubated with 0.1 ml bt-albumin solution for 600 sec. Sensors were subsequently allowed to reach stable baseline levels via incubation with PBS-T for 300 sec. bt-Albumin coated sensors were then transferred to wells containing KB-AT-002/003_ABP (125 or 250 microgram/ml in PBS-T) and incubated for 300 sec in order to visualize association of KB-AT-002/003_ABP to immobilized bt-albumin. Following this association phase, sensors were transferred to wells containing PBS-T, and incubated for 900 sec, allowing dissociation of the KB-AT-002/003_ABP/bt-albumin complex.
(§4) Example 3: Binding of KB-VWF-013bv_ABP to biotinylated human or murine albumin in a biolayer-interferometry analysis assay. We tested the binding of KB-VWF-013bv_ABP (SEQ ID NO: 6) to biotinylated human or murine albumin using Octet-QK equipment (FIG. 3). To this end, biotinylated albumin (bt-albumin) was diluted in phosphate-buffered saline with 0.1% Tween-20 (PBS-T) to a concentration of 200 microgram/ml for absorption to streptavidin-high binding capacity sensors (Fortébio, Menlo Park, Calif., USA). Sensors were rehydrated in 0.2 ml PBS-T for 15 min. Sensors were then incubated with 0.1 ml bt-albumin solution for 600 sec. Sensors were subsequently allowed to reach stable baseline levels via incubation with PBS-T for 300 sec. bt-Albumin coated sensors were then transferred to wells containing KB-VWF-013bv_ABP (125 or 250 microgram/ml in PBS-T) and incubated for 900 sec in order to visualize association of KB-VWF-013bv_ABP to immobilized bt-albumin.

[4] = molecular target: T4, biotinylated human albumin (human, UniProt P02768 25-609, biotinylated (sites not given)); experiment: as above
T4 construct: Captured on streptavidin biosensors; also called human bt-albumin; bt-albumin
Protocol: as §3, §4

[5] = molecular target: T1, murine albumin; experiment: immunosorbent assay: murine albumin coated at 10 microgram/ml, bound sdAb probed with peroxidase-labeled anti-His tag antibody, corrected for non-coated wells
From the text: as §1, §2

[6] = molecular target: T5, human antithrombin (human, UniProt P01008 33-464); experiment: biolayer interferometry (Octet-QK), human antithrombin coupled to amine-reactive sensors, sdAb in solution (100 microgram/ml by paragraph 127)
T5 construct: also called AT
Protocol: Example 4: Binding of murine albumin to a complex of antithrombin and KB-AT-002/003_ABP. We tested the binding of albumin to KB-AT-002/003_ABP while the sdAb was bound to antithrombin via biolayer-interferometry analysis using Octet-QK equipment (FIG. 4). To this end, human antithrombin was diluted in 0.1 M Mes (pH 5.0) to a concentration of 50 microgram/ml for coupling to EDC/NHS-activated amine-reactive biosensors (Fortébio, Menlo Park, Calif., USA). Sensors were rehydrated in 0.2 ml 0.1 M MES, pH 5.0 for 300 sec. Sensors were then activated via incubation with 0.1 ml 0.2 M EDC/0.095 M NHS mixture for 300 sec and subsequently incubated with 0.1 ml antithrombin-solution for 600 sec. Unoccupied amine-reactive sites were quenched by incubating with 1M ethanolamine for 180 sec, and sensors were allowed to reach stable baseline levels via incubation with phosphate-buffered saline supplemented with 0.1% Tween-20 (PBS-T) for 300 sec. Antithrombin-coated sensors were then transferred to wells containing KB-AT-002/003_ABP (100 microgram/ml in PBS-T) and incubated for 600 sec in order to visualize association of KB-AT-002/003_ABP to immobilized antithrombin. […] As is showing in the lower panel of FIG. 4, KB-AT-002/003_ABP bound readily to immobilized antithrombin.

T5 sequence (P01008 33-464 limits assumed): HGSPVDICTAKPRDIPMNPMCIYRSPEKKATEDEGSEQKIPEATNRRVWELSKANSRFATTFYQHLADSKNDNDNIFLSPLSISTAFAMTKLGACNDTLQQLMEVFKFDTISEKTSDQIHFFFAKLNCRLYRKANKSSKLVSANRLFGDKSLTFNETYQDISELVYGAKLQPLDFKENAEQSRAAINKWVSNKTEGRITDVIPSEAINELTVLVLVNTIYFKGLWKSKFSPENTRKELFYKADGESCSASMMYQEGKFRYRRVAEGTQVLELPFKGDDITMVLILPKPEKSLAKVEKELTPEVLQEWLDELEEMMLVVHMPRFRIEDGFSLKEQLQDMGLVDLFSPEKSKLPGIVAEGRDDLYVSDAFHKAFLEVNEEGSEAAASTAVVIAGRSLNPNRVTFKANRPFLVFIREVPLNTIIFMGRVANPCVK

| Binder | binding result [1] | binding result [2] | Kd [3] [µM] | Kd [4] [µM] | binding result [5] | binding result [6] |
| --- | --- | --- | --- | --- | --- | --- |
| KB-AT-002/003 (VHH, A tag is not described, but a His tag is likely, since the ELISA detects with anti-His antibodies) QVQLQESGGGLVQAGGSLRLSCAASGRTFNNNGMGWFRQAPGKEREFVAAISWSGGSTYYADSVKGRYIMSRDNAKNTVYLQMNSLKPEDTAVYYCAARTRYNSGLFSRNYDYWGQGTQVTVSSGGGSGGGSGGGSGGGSQVQLQESGGGLVQPGGSLRLSCAASALTFSSRAWAWYRQAPGKQRELVASITGGGTTNYADSVKGRFTISRDNAKNTVYLQMNSLKPEDTAVHYCNGYRYTYAWGQGTQVTVSS | no binding (tested: 0-10 microgram/ml) | no binding (tested: 0-10 microgram/ml) |  |  |  |  |
| KB-VWF-013bv_ABP (VHH, A tag is not described; also called KB-VWF-013_ABP) QVQLQSGGGLVQAGDSLRLSCAASGRTFIRYAMAWFRQAPGKEREFVAAIPQSGGRSYYADSVKGRFTISRDNAKNTVYLQMNSLKPEDTAVYSCAATSTYYGRSAYSSHSGGYDYWGQGTQVTVSSGGGSGGGSGGGSGGGSQVQLVQSGGGLVQAGDSLRLSCAASGRTFIRYAMAWFRQAPGKEREFVAAIPQSGGRSYYADSVKGRFTISRDNAKNTVYLQMNSLKPEDTAVYSCAATSTYYGRSAYSSHSGGYDYWGQGTQVTVSSGRGGGSLTPRGVRLGGGSQGLIGDIALPRWGALWGDSV |  |  | 0.083 | 0.099 |  |  |
| KB-AT-002/003_ABP (VHH, It was detected with anti-His tag antibodies, so the protein tested carried a His tag; also called KB-AT-002/003_AlbBP) QVQLQESGGGLVQAGGSLRLSCAASGRTFNNNGMGWFRQAPGKEREFVAAISWSGGSTYYADSVKGRYIMSRDNAKNTVYLQMNSLKPEDTAVYYCAARTRYNSGLFSRNYDYWGQGTQVTVSSGGGSGGGSGGGSGGGSQVQLQESGGGLVQPGGSLRLSCAASALTFSSRAWAWYRQAPGKQRELVASITGGGTTNYADSVKGRFTISRDNAKNTVYLQMNSLKPEDTAVHYCNGYRYTYAWGQGTQVTVSSGRGGGSGGGSGGGSGGGSQGLIGDIALPRWGALWGDSV |  |  |  | 0.42 | binds | binds |
